Like-named read-outs stand apart in the source and are kept apart here.
T1: Toll-like receptor 4 (mouse (endogenous in TG-elicited …, UniProt Q9QUK6 26-835))
T1 sequence (looked up): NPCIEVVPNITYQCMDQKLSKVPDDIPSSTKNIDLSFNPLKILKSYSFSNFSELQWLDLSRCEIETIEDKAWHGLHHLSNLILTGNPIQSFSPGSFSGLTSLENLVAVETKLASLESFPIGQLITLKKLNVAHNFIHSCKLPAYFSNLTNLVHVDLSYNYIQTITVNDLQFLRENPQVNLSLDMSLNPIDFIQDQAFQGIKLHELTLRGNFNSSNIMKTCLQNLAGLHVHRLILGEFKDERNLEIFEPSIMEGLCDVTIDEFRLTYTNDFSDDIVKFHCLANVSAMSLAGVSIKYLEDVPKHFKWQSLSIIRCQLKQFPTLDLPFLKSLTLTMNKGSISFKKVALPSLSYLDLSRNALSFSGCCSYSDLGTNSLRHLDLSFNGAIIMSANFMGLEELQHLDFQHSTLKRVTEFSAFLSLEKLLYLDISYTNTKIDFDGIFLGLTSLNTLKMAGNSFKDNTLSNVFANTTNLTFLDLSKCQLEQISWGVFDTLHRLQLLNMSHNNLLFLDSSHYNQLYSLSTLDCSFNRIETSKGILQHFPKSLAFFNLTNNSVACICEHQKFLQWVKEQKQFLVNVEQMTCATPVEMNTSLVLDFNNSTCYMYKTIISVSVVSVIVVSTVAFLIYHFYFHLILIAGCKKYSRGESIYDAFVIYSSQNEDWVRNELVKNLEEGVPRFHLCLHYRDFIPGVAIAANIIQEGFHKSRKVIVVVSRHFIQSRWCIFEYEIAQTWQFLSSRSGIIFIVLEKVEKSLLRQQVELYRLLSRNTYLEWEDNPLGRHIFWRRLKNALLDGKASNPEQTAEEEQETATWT


How the values were obtained:
Assay in all cases: flow cytometry on cells
Toll-like receptor 4 [1] = target: T1, Toll-like receptor 4
Toll-like receptor 4 [2] = target: T1, Toll-like receptor 4; remark: listed apart in the source
Toll-like receptor 4 [3] = target: T1, Toll-like receptor 4; remark: listed apart in the source

| Binder | Ki (Toll-like receptor 4 [1]) | Kd (Toll-like receptor 4 [2]) | Kd (Toll-like receptor 4 [3]) |
| --- | --- | --- | --- |
| FITC-conjugated Prx1 (recombinant human) (natural protein, UniProt Q06830 1-199, looked up, FITC conjugated (FITC conjugation kit, Sigma; residues not stated)) MSSGNAKIGHPAPNFKATAVMPDGQFKDISLSDYKGKYVVFFFYPLDFTFVCPTEIIAFSDRAEEFKKLNCQVIGASVDSHFCHLAWVNTPKKQGGLGPMNIPLVSDPKRTIAQDYGVLKADEGISFRGLFIIDDKGILRQITVNDLPVGRSVDETLRLVQAFQFTDKHGEVCPAGWKPGSDTIKPDVQKSKEYFSKQK |  | ~1300 µM | 1600 µM |
| FITC-conjugated Prx1C52S (recombinant human) (natural protein, UniProt Q06830 1-199, looked up, FITC conjugated (FITC conjugation kit, Sigma; residues not stated)) MSSGNAKIGHPAPNFKATAVMPDGQFKDISLSDYKGKYVVFFFYPLDFTFVSPTEIIAFSDRAEEFKKLNCQVIGASVDSHFCHLAWVNTPKKQGGLGPMNIPLVSDPKRTIAQDYGVLKADEGISFRGLFIIDDKGILRQITVNDLPVGRSVDETLRLVQAFQFTDKHGEVCPAGWKPGSDTIKPDVQKSKEYFSKQK |  |  | 2500 µM |

Second part, the binder after the results:

| Ki (Toll-like receptor 4 [1]) | Kd (Toll-like receptor 4 [2]) | Kd (Toll-like receptor 4 [3]) | Binder |
| --- | --- | --- | --- |
| 4100 µM |  |  | Peroxiredoxin 1 (recombinant human Prx1, unlabeled) (natural protein, UniProt Q06830 1-199, looked up) MSSGNAKIGHPAPNFKATAVMPDGQFKDISLSDYKGKYVVFFFYPLDFTFVCPTEIIAFSDRAEEFKKLNCQVIGASVDSHFCHLAWVNTPKKQGGLGPMNIPLVSDPKRTIAQDYGVLKADEGISFRGLFIIDDKGILRQITVNDLPVGRSVDETLRLVQAFQFTDKHGEVCPAGWKPGSDTIKPDVQKSKEYFSKQK |
| 5200 µM |  |  | Prx1C52S (recombinant human, unlabeled) (natural protein, UniProt Q06830 1-199, looked up) MSSGNAKIGHPAPNFKATAVMPDGQFKDISLSDYKGKYVVFFFYPLDFTFVSPTEIIAFSDRAEEFKKLNCQVIGASVDSHFCHLAWVNTPKKQGGLGPMNIPLVSDPKRTIAQDYGVLKADEGISFRGLFIIDDKGILRQITVNDLPVGRSVDETLRLVQAFQFTDKHGEVCPAGWKPGSDTIKPDVQKSKEYFSKQK |
